This assay concerns the target T1, insoluble type I collagen fibers (UniProt P02453 162-1217; P02465 80-1117).
T1 construct: type I collagen, alpha-1(I) chain; type I collagen, alpha-2(I) chain; Triple-helical, insoluble fibres; also called insoluble collagen fibers; native collagen; source: bought: Sigma‐Aldrich
The experiment in a line: collagen-binding assay with Scatchard analysis; 2.5 mg insoluble type I collagen fibers in 50 μL binding buffer (50 mM Tris/HCl, 0.2 M NaCl, 5 mM CaCl2, pH 7.5) with 0.1–2.0 mg/mL C‐terminal segment and 0.05 mg/mL BSA; unbound protein in the filtrate by SDS/PAGE densitometry; triplicate; least‐squares fit. Particulars: both partners purified.

A word on the Kd: it is the constant that tells how readily two partners part at equilibrium. Read a high Kd as weaker binding.

T1 sequence (P02453 162-1217, chain 1 of 2): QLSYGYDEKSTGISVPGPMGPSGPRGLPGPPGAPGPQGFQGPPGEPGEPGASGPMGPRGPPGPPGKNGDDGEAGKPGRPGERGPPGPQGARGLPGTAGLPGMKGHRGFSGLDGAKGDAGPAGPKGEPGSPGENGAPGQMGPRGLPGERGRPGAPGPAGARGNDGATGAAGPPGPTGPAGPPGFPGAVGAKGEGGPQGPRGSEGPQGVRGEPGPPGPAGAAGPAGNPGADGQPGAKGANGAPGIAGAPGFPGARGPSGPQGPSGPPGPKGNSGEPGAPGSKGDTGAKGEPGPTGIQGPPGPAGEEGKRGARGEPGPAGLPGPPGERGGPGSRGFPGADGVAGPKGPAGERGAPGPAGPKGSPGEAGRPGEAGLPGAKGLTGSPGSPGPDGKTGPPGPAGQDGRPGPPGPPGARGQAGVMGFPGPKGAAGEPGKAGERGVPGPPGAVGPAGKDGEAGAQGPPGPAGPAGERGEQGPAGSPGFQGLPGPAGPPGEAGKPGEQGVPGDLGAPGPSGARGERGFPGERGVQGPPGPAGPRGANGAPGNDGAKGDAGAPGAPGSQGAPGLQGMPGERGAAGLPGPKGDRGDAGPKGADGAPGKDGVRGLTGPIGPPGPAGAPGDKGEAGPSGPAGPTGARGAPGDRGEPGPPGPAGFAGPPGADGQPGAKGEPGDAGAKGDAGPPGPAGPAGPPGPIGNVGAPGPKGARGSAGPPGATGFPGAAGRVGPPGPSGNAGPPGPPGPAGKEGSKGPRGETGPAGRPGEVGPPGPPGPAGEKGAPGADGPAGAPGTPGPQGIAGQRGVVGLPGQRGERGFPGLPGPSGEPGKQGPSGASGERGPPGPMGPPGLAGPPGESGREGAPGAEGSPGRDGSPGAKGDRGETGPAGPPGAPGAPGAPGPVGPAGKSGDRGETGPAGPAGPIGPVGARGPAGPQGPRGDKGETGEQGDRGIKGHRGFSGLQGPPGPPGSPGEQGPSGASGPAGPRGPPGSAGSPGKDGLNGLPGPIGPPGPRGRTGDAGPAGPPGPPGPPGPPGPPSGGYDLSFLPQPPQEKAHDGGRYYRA
T1 sequence (P02465 80-1117, chain 2 of 2): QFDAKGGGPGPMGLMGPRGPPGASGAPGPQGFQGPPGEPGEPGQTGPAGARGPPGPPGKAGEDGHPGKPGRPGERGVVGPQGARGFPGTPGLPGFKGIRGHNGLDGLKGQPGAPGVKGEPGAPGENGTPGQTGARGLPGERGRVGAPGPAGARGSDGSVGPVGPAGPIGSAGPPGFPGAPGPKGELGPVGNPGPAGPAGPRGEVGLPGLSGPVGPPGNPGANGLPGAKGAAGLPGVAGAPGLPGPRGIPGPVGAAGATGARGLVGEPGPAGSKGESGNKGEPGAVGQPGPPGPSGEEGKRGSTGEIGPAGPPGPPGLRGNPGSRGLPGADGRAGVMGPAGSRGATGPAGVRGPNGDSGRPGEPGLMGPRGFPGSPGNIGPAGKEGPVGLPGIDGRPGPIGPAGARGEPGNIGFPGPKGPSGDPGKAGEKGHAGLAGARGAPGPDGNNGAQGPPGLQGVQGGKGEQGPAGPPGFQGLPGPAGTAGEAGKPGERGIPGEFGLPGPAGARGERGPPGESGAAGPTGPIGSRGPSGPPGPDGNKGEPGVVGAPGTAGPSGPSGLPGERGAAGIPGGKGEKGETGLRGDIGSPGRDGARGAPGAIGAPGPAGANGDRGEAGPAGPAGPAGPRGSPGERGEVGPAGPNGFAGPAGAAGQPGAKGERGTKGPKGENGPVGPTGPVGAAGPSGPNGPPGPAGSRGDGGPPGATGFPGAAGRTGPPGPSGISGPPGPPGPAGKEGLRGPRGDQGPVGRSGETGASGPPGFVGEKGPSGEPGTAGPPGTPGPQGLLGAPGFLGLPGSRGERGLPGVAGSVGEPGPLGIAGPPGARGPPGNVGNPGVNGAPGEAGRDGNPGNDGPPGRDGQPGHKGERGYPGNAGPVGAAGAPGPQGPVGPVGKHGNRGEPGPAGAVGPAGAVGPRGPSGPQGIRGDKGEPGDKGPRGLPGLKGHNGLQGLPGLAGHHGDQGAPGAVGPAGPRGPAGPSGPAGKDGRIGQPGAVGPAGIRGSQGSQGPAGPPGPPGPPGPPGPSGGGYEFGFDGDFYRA

B1: recombinant C‐terminal segment (aa 616–767) including the PPC domain of Grimontia hollisae strain 1706B collagenase (domain or fragment)
chain: TEALAKGDSGAGNGEGTGSGNEGGGESGGNTGLPENCAVLPKISDGRLALDEAACLADTASASDVLWFSIPAVSEYQTIAITAGNGTGDLTLEYSNLNWPDGTNVQASSANMGNSECIILEHQANYWGYLKVSGSFENAALLVEAGSNQCRQ
notes: 15.4 kDa; The forward primer carries the enterokinase site (DDDDK) just before residue T616, so the cleaved His-tag was probably N-terminal (surmised); QTOF-MS mass 15 445.01 Da fits two intrachain disulfide bonds; also called G. hollisae
On to B1, for which the equilibrium dissociation constant (Kd) worked out at 27.2 µM.

These data come from PMC6168687, “The C‐terminal segment of collagenase in Grimontia hollisae binds collagen to enhance collagenolysis” (FEBS Open Bio, 2018).
